US20250042994A1 (HAINAN SIMCERE ZAIMING PHARMACEUTICAL, published 2025)

B1: F4.49.11 (antibody, human IgG1, V domains shown)
VH: DVQLRASGPGLVKPSQSLSLTCSVTGYSITSGYYWNWIRQFPGNKLEWMGCISYDGTNNYNPSLKNRISFTRDTSKNQFFLNLNSVTTEDSATYYCARRVYYRYDGVVDYWGQGTSVTVSS
VL: ENVLTQSPAIMSASPGEKVTMTCSASSSVSYIHWYQQKSSTAPKLWIYDTSKLASGVPGRFSGSRSRNSYSLTISSMEAEDVATYYCFQGSGYPLTFGSGTKLEIK
notes: human-murine chimeric antibody, human IgG1
B2: F5.11.2 (antibody, human IgG1, V domains shown)
VH: EVQLVESGGDLVKPGGSLKLSCAASGFTFSSYGMSWVRQTPDKRLEWVATISHGGSYTHYPDSVKGRFTISRDNAKNTLYLQMNSLKSEDTAMYYCVRLPITTVEAPYFFDYWGQGTTLTVSS
VL: DIQMTQTTSSLSASLGDRVTISCRASQDIRNYLNWYQQKPDGTVKLLIYYTSILHSGVPSRFSGSGSGTDYSLTINNLEQEDVATYFCQQGNTLYTFGGGTEVELR
notes: as for B1
B3: F4.96.6 (antibody, human IgG1, V domains shown)
VH: EIQLQQSGPELVKPGASVKVSCKASGYAFSAYNIYWVKQSHGKSLEWIGYIDPYNSGTTYNQKFRGKATLTVDKSSNTAYMHLSSLTSEDSAVYYCTRDGDAMDYWGQGTSVTVSS
VL: EILLTQSPAIIAASPGEKVTITCSASSGVIYMNWYQQKPGSSPKIWIYDVSTLASGVPARFSGSGSGTSFSFTINSMEAEDVATYYCQQRSSYPYTFGGGTKLEIK
notes: as for B1
B4: F3.23.10 (antibody, human IgG1, V domains shown)
VH: EFQLQQSGPELVKPGASVKISCKASDYSFTDYNMNWVKQSNGASLEWIGIINPNFGSTSYNQKFKGKATLTVDQSSSTAFMQLNSLTSEDSAVYYCARSEYYGSSGFAYWGQGTLVTVSA
VL: DVVVTQTPLSLPVSFGDQVSISCRSSQSLVNSYGNTYLSWYLHKPGQSPQLLIYGISNRFSGVPDRFSGSGSGTDFTLKITTIKPEDLGMYYCLQGTHQPWTFGGGTKLEIK
notes: as for B1
B5: F4.35.5 (antibody, human IgG1, V domains shown)
VH: EIQLQQSGPELVKPGASVKVSCKASGYAFTSYNMYWVKQSHGKSLEWIGYIDPYNGDTRYNQKFKGKATLTVDKSSSTAYMHLNSLTSEDSAVYYCTRSGTGRDYWGQGTTLTVSS
VL: QIVLTQSPAIMSASPGEKVTMTCSASSSISYMFWFQQKPGSSPRLLIYDTSSLASGVPVRFSGSGSGTSYTLTISRMEAEDAATYYCQQWSNYPYTFGGGTKLEMK
notes: as for B1
B6: F4.58.6 (antibody, human IgG1, V domains shown)
VH: QVQLQQPGAELVKPGASVKLSCKASGYTFTSYWMHWVKQRPGQGLEWIGEIDPSDSYSNYNQKFKGKATLTVDKSSSTAYMQLSSLTSEDSAVYYCARSNYGSSYGYFDVWGAGTTVTVSS
VL: QIVLTQSPAIMSASPGEKVTMTCSVSSSLSYMHWYQQKPGTSPKRWIYDTSKLASGVPARFSGSGSGTSYSLTISSMEAEDAATYYCHQRSSYPTFGGGTKLEIK
notes: as for B1
B7: F4.276.12 (antibody, human IgG1, V domains shown)
VH: EIQLQQSGPELVKPGASVKVSCKASGYAFSAYNMYWVKQSHGKSLEWIGYIDPYNGGTNYNQKFKGKATLTVDKSSSTAYMHLNSLTSEDSAVYYCARDGYEVTYWGQGTLVTVSA
VL: QIVLTQSPALMSASLGEEITLTCSASSSVTYMHWSQQKSGTSPRLLIYSTSNLASGVPSRFSGSGSGTFYSLTISSVEAEDAADYYCHQWSSYPWTFGGGTKLEIK
notes: as for B1
B8: F6.5.20 (antibody, human IgG1, V domains shown)
VH: QVQLQQPGAELVKPGASVKLSCKASGYTFTSYWMQWVKQRPGQGLEWIGEIDPSDSYTNYNQKFKGKASLTVDTSSSTAYMQLSSLTSEDSAVYYCARWGLLRNYYVMDYWGQGTSVTVSS
VL: EIVLTQSPTTMAASPGEKITITCSASSSISSNYLHWYQQKPGFSPKLLIYRTSNLASGVPARFSGSGSGTSYSLTIGTMEAEDVATYYCQQGSSIPRMLTFGAGTKLELK
notes: as for B1
B9: F4.37.6 (antibody, human IgG1, V domains shown)
VH: QVQLQQSGAELARPGASVKLSCKASGYTFTSFWMQWLKQRPGQGLEWIGTIYPGDGDTRYTQKFKGKATLTADKSSNTAYMQLSSLASEDSAVYYCARGALSNYGGFAYWGQGTLVTVSA
VL: NIVLTQSPASLAVSLGQRATISCRASESVDSYGHSFMHWYQQKPGQPPKLLIYLASNLESGVPARFSGSGSRTDFTLTIDPVEADDAATYYCQQNNEDPWTFGGGTKLEIK
notes: as for B1
B10: F6.2.9 (antibody, human IgG1, V domains shown)
VH: QVQLQQSGAELVKPGASVKISCKASGYAFSSYWMNWVKQRPGKGLEWIGQIYPGDGDTNYNGKFKGKATLTADKSSSTGYMQLSSLTSEDSAVYFCARSRITSVVDWYFDVWGTGTTVTVSS
VL: QIVLSQSPAILSASPGEKVTMTCRASSSVSYMHWYQQKPGSSPKPWIYATSNLASGVPARFSGSGSGTSYSLTISRVEAEDAATYYCQQWSSNPPTFGAGTKLELK
notes: as for B1

Key:
murine CD19 protein = molecular target: T1, murine CD19 protein (murine, UniProt P25918 17-287, limits assumed); experiment: ELISA, coated murine CD19
T1 construct: bought protein; also called commercial murine CD19
T1 sequence (looked up): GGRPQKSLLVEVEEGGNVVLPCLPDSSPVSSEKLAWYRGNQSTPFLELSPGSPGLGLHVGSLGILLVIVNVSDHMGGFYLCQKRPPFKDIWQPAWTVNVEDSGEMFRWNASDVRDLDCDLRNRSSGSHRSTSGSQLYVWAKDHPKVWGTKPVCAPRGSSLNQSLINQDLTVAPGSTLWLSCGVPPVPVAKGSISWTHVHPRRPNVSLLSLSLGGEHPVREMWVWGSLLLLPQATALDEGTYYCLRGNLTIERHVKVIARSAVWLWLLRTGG
Description: (§1) Human CD19-his protein (purchased from ACROBiosystems, catalog number: CD9-H52H2) was diluted with PBS to a final concentration of 4 μg/mL, and then added to a 96-well ELISA plate at 100 μl/well. The plate was sealed with a plastic film and incubated overnight at 4° C., the plate was washed 2 times with PBS the next day, and then a blocking solution [PBS+2% (w/w) BSA] was added for blocking at room temperature for 2 h. The blocking solution was poured off, and 100 nM gradiently diluted CD19 chimeric antibody or control antibody was added at 50 μl/well. After incubation at 37° C. for 2 h, the plate was washed 3 times with PBS. […] TMB substrate was added at 50 μl/well, and incubated at room temperature for 10 min, and then a stop solution (1.0 N HCl) was added at 50 μl/well. The OD450 nm values were read by an ELISA microplate reader (Multimode Plate Reader, EnSight, purchased from Perkin Elmer).
In order to detect the species cross-binding activity of the chimeric antibodies, an ELISA plate was coated with commercial murine CD19 (ACROBiosystems, catalog number: 50510-M08H) and monkey CD19 (ACROBiosystems, catalog number: 90051-C08H), respectively, and the ELISA detection was performed according to the method in example 5.1.

Human CD19-his protein [1] = molecular target: T2, Human CD19-his protein (human, UniProt P15391 20-291); experiment: ELISA, antibody at 10 nM
T2 construct: bought protein; also called human CD19 protein; recombinant human CD19-His; not shown: His tag
T2 sequence (looked up): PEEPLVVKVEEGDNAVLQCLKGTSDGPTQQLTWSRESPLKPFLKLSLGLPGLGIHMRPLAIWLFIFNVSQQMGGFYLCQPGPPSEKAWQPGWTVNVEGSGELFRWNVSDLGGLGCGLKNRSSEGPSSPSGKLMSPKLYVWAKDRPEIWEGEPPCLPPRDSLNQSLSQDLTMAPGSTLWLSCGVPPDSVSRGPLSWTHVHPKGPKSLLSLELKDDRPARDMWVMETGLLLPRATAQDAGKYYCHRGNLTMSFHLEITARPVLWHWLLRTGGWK
Description: as §1

[2] = molecular target: T3, human CD19 exon1-3-his protein (human, UniProt P15391 20-186, limits assumed); experiment: ELISA, coated at 2 ug/mL
T3 construct: made in HEK293E cells; also called membrane-distal end; not shown: His tag
T3 sequence (looked up): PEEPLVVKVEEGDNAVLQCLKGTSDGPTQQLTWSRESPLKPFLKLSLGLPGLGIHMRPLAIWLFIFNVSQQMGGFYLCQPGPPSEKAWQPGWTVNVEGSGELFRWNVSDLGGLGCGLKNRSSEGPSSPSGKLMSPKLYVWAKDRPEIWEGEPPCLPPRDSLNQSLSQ
Description: as §1
CD19 protein contains 4 exons in the extracellular region, in which exons 1-3 are located at the membrane-distal end and exon 4 is located at the membrane-proximal end. […] To identify the distribution of antigen binding epitopes of the chimeric antibodies, human CD19 exon 1-3-His (membrane-distal end) was used to coat at 2 μg/mL according to the ELISA method in example 5.1.

Human CD19-his protein [3] = molecular target: T2, Human CD19-his protein; experiment: ELISA, antibody at 100 nM
Description: as §1

Human CD19-his protein [4] = molecular target: T2, Human CD19-his protein; experiment: ELISA, antibody at 1.00 nM
Description: as §1

Human CD19-his protein [5] = molecular target: T2, Human CD19-his protein; experiment: ELISA, antibody at 0.001 nM
Description: as §1

Human CD19-his protein [6] = molecular target: T2, Human CD19-his protein; experiment: ELISA, antibody at 0.0001 nM
Description: as §1

Human CD19-his protein [7] = molecular target: T2, Human CD19-his protein; experiment: ELISA, antibody at 0.10 nM
Description: as §1

Human CD19-his protein [8] = molecular target: T2, Human CD19-his protein; experiment: ELISA, antibody at 0.01 nM
Description: as §1

Binder	binding result (murine CD19 protein)	OD450 (Human CD19-his protein [1])	binding result [2]	OD450 (Human CD19-his protein [3])	OD450 (Human CD19-his protein [4])	OD450 (Human CD19-his protein [5])	OD450 (Human CD19-his protein [6])	OD450 (Human CD19-his protein [7])	OD450 (Human CD19-his protein [8])
B1	no binding	0.85	no binding	1.16	0.48	0.05	0.04	0.13	0.07
B2	no binding	2.68		3.01	1.82	0.07	0.06	0.56	0.14
B3	no binding	1.16	no binding	1.64	0.91	0.06	0.05	0.29	0.11
B4	no binding	1.85		2.14	1.27	0.06	0.05	0.39	0.09
B5	no binding	0.65	no binding	0.87	0.5	0.05	0.05	0.25	0.07
B6	no binding	0.8	no binding	0.94	0.67	0.05	0.05	0.3	0.09
B7	no binding	1.2	no binding	1.43	1.07	0.06	0.05	0.4	0.13
B8	no binding	0.43	no binding	0.63	0.45	0.06	0.05	0.34	0.1
B9	no binding	1	no binding	1.08	0.8	0.09	0.07	0.6	0.2
B10	no binding	0.26	no binding	0.33	0.13	0.06	0.06	0.08	0.06
